Details in all cases: both partners purified
In one assay the target is T1, AAV9 (wild-type) capsid (adeno-associated virus serotype 9 (AAV9), UniProt Q6JC40 1-736).
T1 construct: AAV9 capsid protein VP1; VR-IV 452-458 NGSGQNQ, VR-VIII 587-590 AQAQ; Whole virus capsid packaging an eGFP genome; also called wild-type AAV9; source: HEK293T, triple-transfected (pHelper, capsid and genome plasmids), purified (iodixanol gradient)
Briefly: BLI; BLItz; biotin-conjugated CaptureSelect AAV9 nanobody on streptavidin biosensor, AAV (5x10^12 vg/ml) loaded as biolayer, MBP-tagged PKD2 as analyte at 1.25-80 uM, 120 s association and 120 s dissociation; DPBS, 1% BSA, 0.02% Tween-20; Kd averaged from 3 experiments.

Assay [1] deals with T2, AAV-PHP.eB capsid (adeno-associated virus serotype 9 (AAV9), UniProt Q6JC40 1-736, 587-588 AQ to DGTLAVPFK).
T2 construct: AAV9 capsid protein VP1 with the PHP.eB VR-VIII 7-mer insertion TLAVPFK between residues 588 and 589 and two flanking point mutations (587-588 AQ to DG); capsid holds VP1, VP2 and VP3; Whole virus capsid packaging an eGFP genome; VP1/VP2/VP3 assembly; source: HEK293T, triple-transfected (pHelper, capsid and genome plasmids), purified (iodixanol gradient)
Described as above.

The target of assay [2] is T3, AAV.CAP-B10 capsid (adeno-associated virus serotype 9 (AAV9), UniProt Q6JC40 1-736, 452NGSGQNQ458 to 452DGAATKN458 | 587-588 AQ to DGTLAVPFK).
T3 construct: capsid holds VP1, VP2 and VP3; Whole virus capsid packaging an eGFP genome; VP1/VP2/VP3 assembly; source: HEK293T, triple-transfected (pHelper, capsid and genome plasmids), purified (iodixanol gradient)
Described as above.

The target of assay [3] is T4, eB.24 capsid (adeno-associated virus serotype 9 (AAV9), UniProt Q6JC40 1-736, S454A | Q456T | 587-588 AQ to DGTLAVPFK).
T4 construct: capsid holds VP1, VP2 and VP3; Whole virus capsid packaging an eGFP genome; VP1/VP2/VP3 assembly; also called PHP.eB.24; source: HEK293T, triple-transfected (pHelper, capsid and genome plasmids), purified (iodixanol gradient)
The assay is described as above.

For the next assay, the target named is T5, AAV9-B10 capsid (adeno-associated virus serotype 9 (AAV9), UniProt Q6JC40 1-736, 452NGSGQNQ458 to 452DGAATKN458).
T5 construct: AAV9 capsid protein VP1 with the CAP-B10 7-mer in VR-IV (452-458 DGAATKN) and unaltered AAV9 VR-VIII; capsid holds VP1, VP2 and VP3; Whole virus capsid packaging an eGFP genome; VP1/VP2/VP3 assembly; source: HEK293T, triple-transfected (pHelper, capsid and genome plasmids), purified (iodixanol gradient)
The description is as above.

The target in the next assay is T6, AAV9-X1 capsid (adeno-associated virus serotype 9 (AAV9), UniProt Q6JC40 1-736, GNNTRSV inserted between 588 and 589).
T6 construct: capsid holds VP1, VP2 and VP3; Whole virus capsid packaging an eGFP genome; VP1/VP2/VP3 assembly; source: HEK293T, triple-transfected (pHelper, capsid and genome plasmids), purified (iodixanol gradient)
Described as above.

Another assay addresses T7, AAV9-X1.1 capsid (adeno-associated virus serotype 9 (AAV9), UniProt Q6JC40 1-736, 452NGSGQNQ458 to 452DGAATKN458 | GNNTRSV inserted between 588 and 589).
T7 construct: AAV9 capsid protein VP1 with the AAV9-X1 VR-VIII 7-mer insertion GNNTRSV between residues 588 and 589 and the CAP-B10 7-mer in VR-IV (452-458 DGAATKN); capsid holds VP1, VP2 and VP3; Whole virus capsid packaging an eGFP genome (SCP1 promoter); VP1/VP2/VP3 assembly; source: HEK293T, triple-transfected (pHelper, capsid and genome plasmids), purified (iodixanol gradient)
The description is as above.

Assay [4] addresses T2, AAV-PHP.eB capsid. Briefly: pull-down; 6xHis-tagged bait (AAVR-PKD2 100-200 pmol or His-Fc-LY6A 30-60 pmol) on Ni-NTA resin, prey AAVs (0.05 pmol); DPBS with 20 mM imidazole, 1 hr at 4 C; eluted with 150 mM imidazole; western blot with anti-VP1/VP2/VP3 and anti-6xHis. A general note: In western blotting, separated proteins are transferred to a membrane and probed.
In assay [5] the target is T3, AAV.CAP-B10 capsid. The description is as above.
Assay [6] deals with T4, eB.24 capsid. The description is as above.

B1: PKD2 domain of AAVR (AA 401-498) fused to maltose binding protein and 6xHis (domain or fragment)
chain: EPRKNRPPIAIVSPQFQEISLPTTSTVIDGSQSTDDDKIVQYHWEELKGPLREEKISEDTAILKLSKLVPGNYTFSLTVVDSDGATNSTTANLTVNKA
notes: AAV receptor (AAVR), polycystic kidney disease domain 2 (PKD2), AA 401-498; Construct for biolayer interferometry; monomer fraction from SEC was used; also called AAVR-PKD2; MBP-tagged AAVR-PKD2; source: E. coli BL21 (DE3)-RIPL, purified (amylose resin, Superdex 200 SEC)
For B1, the Kd in the assay with AAV9 (wild-type) capsid amounted to 11 µM; with AAV-PHP.eB capsid [1], 14 µM; in the assay with AAV.CAP-B10 capsid [2] it was 61 µM; with eB.24 capsid [3], 24 µM; in the assay with AAV9-B10 capsid it was 47 µM; with AAV9-X1 capsid it was 6 µM. This molecule also had a Kd in the assay with AAV9-X1.1 capsid of 19 µM.

B2: LY6A (AA 1-109) derived from C57BL/6 mice with Fc (human IgG1), Myc and 6xHis tags (Fc fusion, mouse (C57BL/6), UniProt P05533 27-109, looked up)
chain: LECYQCYGVPFETSCPSITCPYPDGVCVTQEAAVIVDSQTRKVKNNLCLPICPPNIESMEILGTKVNVKTSCCQEDLCNVAVP
notes: signal peptide in the construct; LY6A, C57BL/6 mouse, AA 1-109; also called His-Fc-LY6A; source: HEK293T, transiently transfected, secreted into conditioned media, purified (Ni-NTA)
For the molecule B2, the binding result with AAV-PHP.eB capsid [4], with AAV.CAP-B10 capsid [5] and in the assay with eB.24 capsid [6] was “binds” in each case.

Usually Kd stands for the constant that tells how readily two partners part at equilibrium. A high value points to weaker binding.

Values taken from publication PMC13267735, “Structural basis of liver de-targeting and neuronal tropism of CNS-targeted AAV capsids” (Molecular therapy : the journal of the American Society of …, 2026).
